Source: publication doi:10.1101/2023.11.14.566657 (bioRxiv, 2023)
Positions count from the first letter of the chain named.

Assays:
[1] = target: the molecule itself; test: mass photometry
[2] = target: T1, RAD52 wild type;SMARCAL1 (human;human?, UniProt P43351;Q9NZC9 1-418;1-954, |); test: mass photometry
T1 sequence 1: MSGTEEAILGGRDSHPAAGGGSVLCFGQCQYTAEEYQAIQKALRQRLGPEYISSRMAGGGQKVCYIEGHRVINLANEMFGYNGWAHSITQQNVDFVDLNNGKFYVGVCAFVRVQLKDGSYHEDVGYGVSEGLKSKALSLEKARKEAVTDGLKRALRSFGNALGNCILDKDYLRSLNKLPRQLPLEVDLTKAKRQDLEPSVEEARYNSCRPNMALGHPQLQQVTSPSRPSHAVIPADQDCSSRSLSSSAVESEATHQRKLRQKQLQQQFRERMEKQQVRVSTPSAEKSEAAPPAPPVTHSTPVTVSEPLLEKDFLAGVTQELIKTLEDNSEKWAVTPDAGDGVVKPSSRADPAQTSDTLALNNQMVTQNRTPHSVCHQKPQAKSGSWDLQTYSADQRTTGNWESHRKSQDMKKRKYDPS
T1 sequence 2: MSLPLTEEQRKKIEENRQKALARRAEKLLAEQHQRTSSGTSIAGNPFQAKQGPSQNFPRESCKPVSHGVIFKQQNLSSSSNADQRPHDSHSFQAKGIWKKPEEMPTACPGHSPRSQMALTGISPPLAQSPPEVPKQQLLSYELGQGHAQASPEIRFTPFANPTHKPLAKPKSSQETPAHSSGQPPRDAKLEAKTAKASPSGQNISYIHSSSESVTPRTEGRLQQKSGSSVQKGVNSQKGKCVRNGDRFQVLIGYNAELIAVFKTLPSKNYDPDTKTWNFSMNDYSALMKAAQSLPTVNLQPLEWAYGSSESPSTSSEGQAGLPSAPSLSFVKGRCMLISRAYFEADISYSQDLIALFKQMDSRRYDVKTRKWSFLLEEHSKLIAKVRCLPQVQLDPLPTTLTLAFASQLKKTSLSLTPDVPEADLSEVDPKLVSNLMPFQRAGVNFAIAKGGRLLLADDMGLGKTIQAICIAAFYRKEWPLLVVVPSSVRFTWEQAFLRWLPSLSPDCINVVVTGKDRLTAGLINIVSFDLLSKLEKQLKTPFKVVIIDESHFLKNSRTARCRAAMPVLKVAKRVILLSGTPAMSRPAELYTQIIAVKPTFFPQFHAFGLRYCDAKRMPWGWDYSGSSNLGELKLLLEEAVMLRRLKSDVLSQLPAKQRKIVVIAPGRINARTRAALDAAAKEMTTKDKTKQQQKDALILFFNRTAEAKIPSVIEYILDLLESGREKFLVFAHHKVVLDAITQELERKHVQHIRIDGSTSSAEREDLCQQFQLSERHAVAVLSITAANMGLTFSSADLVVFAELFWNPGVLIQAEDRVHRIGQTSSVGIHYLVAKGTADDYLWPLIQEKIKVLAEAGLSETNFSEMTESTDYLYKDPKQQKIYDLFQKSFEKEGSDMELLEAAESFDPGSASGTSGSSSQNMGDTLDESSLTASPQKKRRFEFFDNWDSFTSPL

[3] = target: T2, SMARCAL1 (UniProt Q9NZC9 1-954); test: mass photometry
T2 sequence: T1 sequence 2

[4] = target: RPA (UniProt P27694;P15927;P35244 1-616;1-270;1-121); test: mass photometry
Sequence of RPA (P27694 whole entry, chain 1 of 3): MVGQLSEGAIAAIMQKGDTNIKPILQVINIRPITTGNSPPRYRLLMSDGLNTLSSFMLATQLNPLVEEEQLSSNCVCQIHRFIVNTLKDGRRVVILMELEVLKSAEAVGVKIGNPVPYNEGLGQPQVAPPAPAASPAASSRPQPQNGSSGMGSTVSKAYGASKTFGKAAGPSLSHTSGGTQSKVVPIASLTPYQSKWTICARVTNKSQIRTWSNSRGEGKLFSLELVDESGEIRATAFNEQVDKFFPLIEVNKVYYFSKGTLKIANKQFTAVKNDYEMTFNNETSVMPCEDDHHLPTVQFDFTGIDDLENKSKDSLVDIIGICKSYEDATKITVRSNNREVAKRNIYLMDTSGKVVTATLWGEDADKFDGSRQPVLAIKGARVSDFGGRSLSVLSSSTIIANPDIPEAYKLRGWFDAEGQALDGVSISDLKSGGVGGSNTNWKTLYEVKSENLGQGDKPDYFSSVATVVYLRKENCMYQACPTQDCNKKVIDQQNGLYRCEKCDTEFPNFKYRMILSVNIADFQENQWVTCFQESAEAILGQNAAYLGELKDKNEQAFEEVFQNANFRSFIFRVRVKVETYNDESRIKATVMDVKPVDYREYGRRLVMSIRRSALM
Sequence of RPA (P15927 whole entry, chain 2 of 3): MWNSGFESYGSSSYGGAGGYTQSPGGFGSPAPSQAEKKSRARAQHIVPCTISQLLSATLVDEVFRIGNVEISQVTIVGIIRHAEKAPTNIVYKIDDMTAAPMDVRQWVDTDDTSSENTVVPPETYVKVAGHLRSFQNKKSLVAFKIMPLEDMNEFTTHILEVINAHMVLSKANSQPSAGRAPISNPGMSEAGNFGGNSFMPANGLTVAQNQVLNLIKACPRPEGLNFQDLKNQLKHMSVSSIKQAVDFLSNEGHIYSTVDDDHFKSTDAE
Sequence of RPA (P35244 whole entry, chain 3 of 3): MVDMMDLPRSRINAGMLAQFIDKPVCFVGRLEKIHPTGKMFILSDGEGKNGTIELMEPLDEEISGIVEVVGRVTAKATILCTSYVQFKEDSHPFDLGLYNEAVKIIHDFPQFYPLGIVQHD

[5] = target: T3, RAD52 wild type (human, UniProt P43351 1-418); test: mass photometry
T3 sequence: T1 sequence 1

[6] = target: T4, RAD52 IBD (human, UniProt P43351 1-418, K152A;R153A); test: mass photometry
T4 sequence: T1 sequence 1 with K152A, R153A

[7] = target: RAD52 wild type;RPA (human;human?, UniProt P43351;P27694;P15927;P35244 1-418;1-616;1-270;1-121, |); test: mass photometry
Sequence of RAD52 wild type;RPA (P27694 whole entry, chain 2 of 3): as the sequence (P27694 whole entry, chain 1 of 3) above
Sequence of RAD52 wild type;RPA (P15927 whole entry, chain 3 of 3): as the sequence (P15927 whole entry, chain 2 of 3) above
Sequence of RAD52 wild type;RPA (P35244 whole entry, chain 4 of 3): as the sequence (P35244 whole entry, chain 3 of 3) above

[8] = target: T3, RAD52 wild type; test: P1 nuclease footprinting
[9] = target: T3, RAD52 wild type; test: P1 nuclease footprinting; remark: listed apart in the source

B1: 6xHis-tagged human RAD52 protein (wild type) (natural protein)
chain: T1 sequence 1
B1 was tested, and the “stoichiometry N” value [1] was 10.

B2: heterologous fork, 30 nt gap (#6/#2/#3/#4) (mixed)
DNA 1: GGTATATTCAACAGTTCAACGACGAATGTTTTTTTTTTTTTTTTTTTTTTTTTTTTTTCTTTTGAGGCAGGCATGGTAGC
DNA 2: GCTACCATGCCTGCCTCAAAAGTTCGTAATATGCTACACACTGGAGTACCGGCATTCGTCGTTGAACTGTTGAATATACC
DNA 3: GGTACTCCAGTGTGTAGCATATTACGAACTTTTGAGGCAGGCATGGTAGC
DNA 4: GCTACCATGCCTGCCTCAAAAG
B2: binds [2]; binds [3]; binds [4]. B2: binds [5]; binds [6]; binds [7].

B3: heterologous fork P1 assay (#5/#2/#3/#4) (mixed)
DNA 1: GGTATATTCAACAGTTCAACGACGAATGTTGTGCATAACGTCGCTCCGTAGCTATACGCTTTTGAGGCAGGCATGGTAGC
DNA 2: B2 DNA 2
DNA 3: B2 DNA 3
DNA 4: GCTACCATGCCTGCCTCAAAAG
B3: binds [8].

B4: homologous fork, 30 nt leading gap (#1/#2/#3/#4) (mixed)
DNA 1: GGTATATTCAACAGTTCAACGACGAATGTTGGTACTCCAGTGTGTAGCATATTACGAACTTTTGAGGCAGGCATGGTAGC
DNA 2: B2 DNA 2
DNA 3: B2 DNA 3
DNA 4: GCTACCATGCCTGCCTCAAAAG
B4: binds [9].
